Data: patent US20020193570A1
Values belong to the substance of their own block, whether it stands above or below them.

Legend:
[1] = biological target: IL-12 receptor on mouse effector cells (mouse) (UniProt Q60837); experiment: cell-based or functional assay
[2] = biological target: KS antigen recognized by the KS-1/4 antibody (plate-coated / as antigen) (UniProt P16422); experiment: ELISA, plates coated with KS antigen, detection with anti-human IL-12 p40 antibody
[3] = biological target: IL-12 receptor on human PBMC (human) (UniProt P42701); experiment: cell-based or functional assay
IL-12 receptor on human PBMC (human), sequence (Q99665 24-862, chain 2 of 2, other chains not shown): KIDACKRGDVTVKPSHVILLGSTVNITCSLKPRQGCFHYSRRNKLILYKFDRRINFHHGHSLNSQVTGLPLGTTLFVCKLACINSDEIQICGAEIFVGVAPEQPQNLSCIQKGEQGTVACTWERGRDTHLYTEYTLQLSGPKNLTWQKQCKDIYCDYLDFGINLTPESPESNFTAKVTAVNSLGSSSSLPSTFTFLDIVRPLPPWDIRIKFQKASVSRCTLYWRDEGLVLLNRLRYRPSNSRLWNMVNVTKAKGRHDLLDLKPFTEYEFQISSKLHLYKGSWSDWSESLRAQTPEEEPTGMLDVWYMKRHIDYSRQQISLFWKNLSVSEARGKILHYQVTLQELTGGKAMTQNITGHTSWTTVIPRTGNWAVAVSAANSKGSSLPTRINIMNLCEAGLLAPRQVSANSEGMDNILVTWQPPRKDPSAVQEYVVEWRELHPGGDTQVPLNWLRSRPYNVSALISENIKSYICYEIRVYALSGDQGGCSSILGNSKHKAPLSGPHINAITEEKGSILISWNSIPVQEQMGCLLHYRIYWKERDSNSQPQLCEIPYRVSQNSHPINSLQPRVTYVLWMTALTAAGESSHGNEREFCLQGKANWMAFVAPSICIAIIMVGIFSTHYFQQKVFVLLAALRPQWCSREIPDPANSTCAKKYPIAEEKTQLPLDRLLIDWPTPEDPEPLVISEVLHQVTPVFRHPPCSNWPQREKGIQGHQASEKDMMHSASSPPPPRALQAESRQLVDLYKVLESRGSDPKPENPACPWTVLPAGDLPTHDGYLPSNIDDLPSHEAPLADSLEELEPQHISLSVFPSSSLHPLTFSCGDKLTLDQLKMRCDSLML

KS antigen recognized by the KS-1/4 antibody (plate-coated / as antigen), sequence (P16422 24-265 limits assumed): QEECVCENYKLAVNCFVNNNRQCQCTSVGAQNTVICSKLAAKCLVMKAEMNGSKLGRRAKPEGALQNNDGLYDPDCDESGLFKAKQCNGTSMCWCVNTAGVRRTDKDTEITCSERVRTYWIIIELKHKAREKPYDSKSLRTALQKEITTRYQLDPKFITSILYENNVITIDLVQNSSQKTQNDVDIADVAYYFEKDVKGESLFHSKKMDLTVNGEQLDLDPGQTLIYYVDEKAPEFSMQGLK
IL-12 receptor on mouse effector cells (mouse), sequence (Q60837 20-738, chain 1 of 2): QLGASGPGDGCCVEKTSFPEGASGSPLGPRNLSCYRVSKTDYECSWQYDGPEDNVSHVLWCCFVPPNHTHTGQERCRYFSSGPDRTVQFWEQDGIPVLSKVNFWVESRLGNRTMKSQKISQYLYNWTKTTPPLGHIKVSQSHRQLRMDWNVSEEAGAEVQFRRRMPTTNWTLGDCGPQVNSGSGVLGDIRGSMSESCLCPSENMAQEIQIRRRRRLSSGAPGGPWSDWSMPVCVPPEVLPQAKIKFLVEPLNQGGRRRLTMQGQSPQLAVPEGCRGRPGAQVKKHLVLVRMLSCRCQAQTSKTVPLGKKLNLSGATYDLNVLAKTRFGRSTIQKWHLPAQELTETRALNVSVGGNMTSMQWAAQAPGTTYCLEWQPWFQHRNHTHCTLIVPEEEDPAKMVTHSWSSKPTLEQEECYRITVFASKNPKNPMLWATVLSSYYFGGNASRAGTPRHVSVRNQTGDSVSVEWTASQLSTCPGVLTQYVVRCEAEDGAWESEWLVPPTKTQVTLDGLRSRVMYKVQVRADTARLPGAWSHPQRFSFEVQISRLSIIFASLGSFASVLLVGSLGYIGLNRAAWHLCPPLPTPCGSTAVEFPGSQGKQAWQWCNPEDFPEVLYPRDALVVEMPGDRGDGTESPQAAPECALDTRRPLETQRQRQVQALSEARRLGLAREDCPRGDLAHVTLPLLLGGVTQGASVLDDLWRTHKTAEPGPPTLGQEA
IL-12 receptor on mouse effector cells (mouse), sequence (P97378 24-874, chain 2 of 2, further chain): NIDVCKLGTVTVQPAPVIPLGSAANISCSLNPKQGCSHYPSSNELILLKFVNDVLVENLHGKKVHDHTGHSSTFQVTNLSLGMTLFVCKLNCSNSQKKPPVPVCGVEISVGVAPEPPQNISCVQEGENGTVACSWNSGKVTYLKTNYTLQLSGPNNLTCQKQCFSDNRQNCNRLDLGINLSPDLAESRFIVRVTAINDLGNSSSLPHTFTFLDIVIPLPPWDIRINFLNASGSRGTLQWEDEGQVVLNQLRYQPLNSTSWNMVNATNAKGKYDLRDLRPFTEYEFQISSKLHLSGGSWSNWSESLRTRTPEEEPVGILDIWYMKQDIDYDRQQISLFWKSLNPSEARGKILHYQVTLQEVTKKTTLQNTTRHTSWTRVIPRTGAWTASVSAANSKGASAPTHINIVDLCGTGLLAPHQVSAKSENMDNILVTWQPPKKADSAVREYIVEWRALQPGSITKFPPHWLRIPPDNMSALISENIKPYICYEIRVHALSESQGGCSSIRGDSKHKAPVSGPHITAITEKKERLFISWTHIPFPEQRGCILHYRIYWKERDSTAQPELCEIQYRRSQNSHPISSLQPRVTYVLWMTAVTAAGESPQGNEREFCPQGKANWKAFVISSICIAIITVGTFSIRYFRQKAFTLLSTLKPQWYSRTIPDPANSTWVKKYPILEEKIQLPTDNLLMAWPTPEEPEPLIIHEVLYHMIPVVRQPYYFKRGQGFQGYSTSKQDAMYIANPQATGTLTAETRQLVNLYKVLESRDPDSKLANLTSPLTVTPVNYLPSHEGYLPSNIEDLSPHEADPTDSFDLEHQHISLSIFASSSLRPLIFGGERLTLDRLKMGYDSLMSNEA

- induction of IFN-γ secretion from mouse cells (fold less than the mouse IL-12 control) [1]: 50
- intensity of binding against the whole KS-1/4 antibody (fold lower than whole KS-1/4 antibody) [2]: 3
Substance: single-chain fusion protein with a mouse p35 subunit and a human p40 subunit (KS-1/4 scFv-mouse p35/human p40) (from UniProt P43431 23-215; P29460 23-328)

- induction of IFN-γ secretion from PHA-activated PBMC (fold less active than the IL-12 standard) [3]: 6
Substance: Hu-KS-IL-12 fusion protein with both human IL-12 chains (from UniProt P01857 1-330; P29459 23-219; P29460 23-328) (antibody)

- intensity of binding against the whole KS-1/4 antibody (fold lower than whole KS-1/4 antibody) [2]: 3
Substance: single-chain fusion protein with human p35 and p40 subunits (KS-1/4 scFv-human IL-12) (from UniProt P29459 23-219; P29460 23-328)

- induction of IFN-γ secretion from PHA-activated PBMC ([3]; scale: fold less active than Hu-KS-IL-12 with human IL-12 chains): 4
- induction of IFN-γ secretion from mouse effector cells pre-stimulated with Concanavalin A ([1]; scale: fold less active than the mouse IL-12 standard): 50
Substance: Hu-KS-1/4-mouse p35 human p40 fusion protein (from UniProt P01857 1-330; P43431 23-215; P29460 23-328) (antibody)
